This note sets out measurements from article PMC4081100, “A DNA-binding-site landscape and regulatory network analysis for NAC transcription factors in Arabidopsis thaliana”.

One series concerns the target T1, GST-ANAC092(1-176) (Arabidopsis thaliana, UniProt Q9FKA0 1-176).
T1 sequence: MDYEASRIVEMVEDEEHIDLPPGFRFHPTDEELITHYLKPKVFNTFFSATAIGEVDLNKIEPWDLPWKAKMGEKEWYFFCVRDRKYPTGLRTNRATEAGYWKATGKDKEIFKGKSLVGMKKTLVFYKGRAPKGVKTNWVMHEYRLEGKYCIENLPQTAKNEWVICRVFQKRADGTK
The experiment in a line: EMSA; EMSA with 75 pM 32P-labelled DNA, binding buffer as in cited refs 7 and 36; oligos annealed in 20 mM Tris-HCl pH 8.0, 20 mM MgCl2. To be noted: protein: recombinant, tags: GST, chain copies: 2, label: 32P. In general terms: In EMSA bound probe runs differently from free probe, usually more slowly.

The target in the next series is GST-NTL6(1-168) (Arabidopsis thaliana, UniProt Q9SCK6 1-168). The description is as above. The settings on record: protein: recombinant; tags: GST; chain copies: 2; label: 32P; 5' overhangs 4 nt (GATC) on both strands.
Sequence of GST-NTL6(1-168) (Q9SCK6 1-168): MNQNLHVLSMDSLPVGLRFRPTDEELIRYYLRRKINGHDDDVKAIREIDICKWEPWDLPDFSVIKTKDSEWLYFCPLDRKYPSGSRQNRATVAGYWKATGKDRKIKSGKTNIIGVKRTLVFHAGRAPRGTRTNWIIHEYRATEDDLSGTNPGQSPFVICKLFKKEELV

B1: PalNACBS (dsDNA)
DNA 1: CAGTCTTGCGTGTTGGAACACGCAACAGTC
DNA 2: GACTGTTGCGTGTTCCAACACGCAAGACTG
For B1, in the series with GST-ANAC092(1-176) (blunt), the binding result is listed as “binds”.

B2: MYB90 WT promoter (dsDNA)
DNA 1: GATCAGGTTCAGCTACGTCACCGATCCAGG
DNA 2: GATCCCTGGATCGGTGACGTAGCTGAACCT
As for B2, the figures for the binding result with GST-ANAC092(1-176) (5' overhangs 4 nt (GATC) on both strands) and with GST-NTL6(1-168) were “binds” and “no binding”, respectively.

B3: MYB90Synth (Synthetic promoter) (dsDNA)
DNA 1: GATCAGGTTCAGCTAAGTAACCGATCCAGG
DNA 2: GATCCCTGGATCGGTTACTTAGCTGAACCT
On to B3, for which, in the series with GST-NTL6(1-168), the binding result is “binds”.
